The values below are quoted from earlier work in article PMC8506081.

One data set deals with PSD-95 (Homo sapiens) (UniProt P78352).
Data set [1] concerns the target PSD-95 PDZ2 (Homo sapiens) (UniProt P78352).

Chain of PSD-95 PDZ2 (Homo sapiens) (P78352 157-249): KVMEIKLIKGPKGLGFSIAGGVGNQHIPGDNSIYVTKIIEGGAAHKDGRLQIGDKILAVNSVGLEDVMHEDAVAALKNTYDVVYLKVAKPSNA
Chain of PSD-95 (Homo sapiens) (P78352 whole entry): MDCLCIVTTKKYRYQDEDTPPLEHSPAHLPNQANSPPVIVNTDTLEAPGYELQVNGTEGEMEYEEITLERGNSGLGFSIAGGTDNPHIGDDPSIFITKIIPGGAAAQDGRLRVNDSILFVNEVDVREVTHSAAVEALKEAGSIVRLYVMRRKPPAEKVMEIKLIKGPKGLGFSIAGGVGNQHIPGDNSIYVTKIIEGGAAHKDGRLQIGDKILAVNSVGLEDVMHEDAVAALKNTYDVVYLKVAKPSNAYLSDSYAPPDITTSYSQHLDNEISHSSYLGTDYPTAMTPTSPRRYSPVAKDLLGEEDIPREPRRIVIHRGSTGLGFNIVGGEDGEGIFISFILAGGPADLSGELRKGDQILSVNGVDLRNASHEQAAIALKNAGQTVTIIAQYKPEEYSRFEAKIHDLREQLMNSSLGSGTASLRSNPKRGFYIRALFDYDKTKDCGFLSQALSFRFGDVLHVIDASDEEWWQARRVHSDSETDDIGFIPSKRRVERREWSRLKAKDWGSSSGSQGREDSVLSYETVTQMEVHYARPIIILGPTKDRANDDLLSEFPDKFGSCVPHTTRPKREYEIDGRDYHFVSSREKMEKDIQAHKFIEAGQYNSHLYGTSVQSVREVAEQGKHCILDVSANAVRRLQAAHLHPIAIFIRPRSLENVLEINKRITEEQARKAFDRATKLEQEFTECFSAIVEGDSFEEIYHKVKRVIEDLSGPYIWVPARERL

AVLX-125: the Ki (in general, the equilibrium dissociation constant of an inhibitor or competing ligand from its target) with PSD-95 (Homo sapiens) was 0.01 µM.
NA-1: in data set [1], the Ki is 4.4 µM.
